Test results from article PMC10724393, “FOXA2 Suppression by TRIM36 Exerts Anti‐Tumor Role in Colorectal Cancer Via Inducing NRF2/GPX4‐Regulated Ferroptosis” (Advanced Science, 2023).

Columns and labels:
His-tagged TRIM36 = target: T1, His-tagged TRIM36 (human, UniProt Q9NQ86 1-728); test: pull-down; GST fusion on glutathione-Sepharose 4B beads, incubated with purified His-tagged partner for 4 h; eluate blotted with anti-His; GST alone as control; settings: both partners purified
T1 construct: TRIM36, human; construct and limits of the His-tagged protein are not described; also called His-TRIM36; source: purified
T1 sequence (looked up): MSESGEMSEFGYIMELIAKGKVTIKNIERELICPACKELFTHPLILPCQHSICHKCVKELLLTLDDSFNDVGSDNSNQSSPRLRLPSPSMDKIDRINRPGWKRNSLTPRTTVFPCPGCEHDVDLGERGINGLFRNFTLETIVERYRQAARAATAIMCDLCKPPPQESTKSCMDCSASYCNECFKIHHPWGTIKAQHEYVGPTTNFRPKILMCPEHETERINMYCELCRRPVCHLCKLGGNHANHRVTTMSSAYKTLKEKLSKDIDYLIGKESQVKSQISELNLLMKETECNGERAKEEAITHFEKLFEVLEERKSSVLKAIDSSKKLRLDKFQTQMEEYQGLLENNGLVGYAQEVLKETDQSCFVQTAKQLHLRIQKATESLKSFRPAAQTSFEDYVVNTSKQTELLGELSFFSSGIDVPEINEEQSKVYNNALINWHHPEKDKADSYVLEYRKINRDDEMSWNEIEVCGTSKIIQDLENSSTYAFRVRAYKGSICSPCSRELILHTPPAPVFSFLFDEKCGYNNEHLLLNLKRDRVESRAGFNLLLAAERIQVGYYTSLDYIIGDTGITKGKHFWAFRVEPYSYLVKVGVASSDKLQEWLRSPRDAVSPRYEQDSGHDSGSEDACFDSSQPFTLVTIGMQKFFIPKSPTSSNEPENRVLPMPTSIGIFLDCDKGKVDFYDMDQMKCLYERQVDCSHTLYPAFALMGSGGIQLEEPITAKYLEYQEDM

GST-TRIM36 = target: T2, GST-TRIM36 (human, UniProt Q9NQ86 1-728); test: as above; settings: both partners purified
T2 construct: TRIM36, human cDNA, full length, cloned into pGEX-4T-1-GST; also called purified GST-TRIM36
T2 sequence (looked up): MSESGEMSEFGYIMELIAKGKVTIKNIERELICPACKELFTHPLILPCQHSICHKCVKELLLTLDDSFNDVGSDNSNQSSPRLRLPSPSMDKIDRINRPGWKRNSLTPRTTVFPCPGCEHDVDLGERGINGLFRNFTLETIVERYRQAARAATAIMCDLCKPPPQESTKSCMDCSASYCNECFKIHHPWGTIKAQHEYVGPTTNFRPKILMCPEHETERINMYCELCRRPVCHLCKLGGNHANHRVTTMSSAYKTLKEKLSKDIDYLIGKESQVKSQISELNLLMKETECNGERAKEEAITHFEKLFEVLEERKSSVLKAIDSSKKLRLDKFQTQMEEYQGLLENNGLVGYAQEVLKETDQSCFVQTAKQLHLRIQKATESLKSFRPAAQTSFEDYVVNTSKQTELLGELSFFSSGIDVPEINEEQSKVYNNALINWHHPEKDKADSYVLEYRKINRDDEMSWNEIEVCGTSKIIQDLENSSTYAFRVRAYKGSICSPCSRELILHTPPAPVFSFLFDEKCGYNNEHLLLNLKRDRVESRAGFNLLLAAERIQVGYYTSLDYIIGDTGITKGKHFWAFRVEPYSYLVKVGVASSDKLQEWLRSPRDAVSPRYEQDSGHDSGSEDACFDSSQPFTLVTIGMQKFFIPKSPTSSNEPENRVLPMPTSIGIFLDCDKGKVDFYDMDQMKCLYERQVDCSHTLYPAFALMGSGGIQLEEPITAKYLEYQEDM

Row | Binder | binding result (His-tagged TRIM36) | binding result (GST-TRIM36)
1 | GST-FOXA2 (natural protein, human, UniProt Q9Y261 1-457, looked up, FOXA2, human cDNA, full length, cloned into pGEX-4T-1-GST; also called purified GST-FOXA2) MLGAVKMEGHEPSDWSSYYAEPEGYSSVSNMNAGLGMNGMNTYMSMSAAAMGSGSGNMSAGSMNMSSYVGAGMSPSLAGMSPGAGAMAGMGGSAGAAGVAGMGPHLSPSLSPLGGQAAGAMGGLAPYANMNSMSPMYGQAGLSRARDPKTYRRSYTHAKPPYSYISLITMAIQQSPNKMLTLSEIYQWIMDLFPFYRQNQQRWQNSIRHSLSFNDCFLKVPRSPDKPGKGSFWTLHPDSGNMFENGCYLRRQKRFKCEKQLALKEAAGAAGSGKKAAAGAQASQAQLGEAAGPASETPAGTESPHSSASPCQEHKRGGLGELKGTPAAALSPPEPAPSPGQQQQAAAHLLGPPHHPGLPPEAHLKPEHHYAFNHPFSINNLMSSEQQHHHSHHHHQPHKMDLKAYEQVMHYPGYGSPMPGSLAMGPVTNKTGLDASPLAADTSYYQGVYSRPIMNSS | binds | 
2 | His-tagged FOXA2 (natural protein, human, UniProt Q9Y261 1-457, looked up, FOXA2, human; construct and limits of the His-tagged protein are not described; also called His-FOXA2; source: purified) MLGAVKMEGHEPSDWSSYYAEPEGYSSVSNMNAGLGMNGMNTYMSMSAAAMGSGSGNMSAGSMNMSSYVGAGMSPSLAGMSPGAGAMAGMGGSAGAAGVAGMGPHLSPSLSPLGGQAAGAMGGLAPYANMNSMSPMYGQAGLSRARDPKTYRRSYTHAKPPYSYISLITMAIQQSPNKMLTLSEIYQWIMDLFPFYRQNQQRWQNSIRHSLSFNDCFLKVPRSPDKPGKGSFWTLHPDSGNMFENGCYLRRQKRFKCEKQLALKEAAGAAGSGKKAAAGAQASQAQLGEAAGPASETPAGTESPHSSASPCQEHKRGGLGELKGTPAAALSPPEPAPSPGQQQQAAAHLLGPPHHPGLPPEAHLKPEHHYAFNHPFSINNLMSSEQQHHHSHHHHQPHKMDLKAYEQVMHYPGYGSPMPGSLAMGPVTNKTGLDASPLAADTSYYQGVYSRPIMNSS |  | binds
